In patent publication US20260151470A1:

Target: native PfCSP on PfCSP-expressing Plasmodium berghei (PbPf) sporozoites (Plasmodium falciparum) (UniProt P19597)
Assay: cell-based or functional assay

UniProt P19597, sequence (P19597 19-374 limits assumed): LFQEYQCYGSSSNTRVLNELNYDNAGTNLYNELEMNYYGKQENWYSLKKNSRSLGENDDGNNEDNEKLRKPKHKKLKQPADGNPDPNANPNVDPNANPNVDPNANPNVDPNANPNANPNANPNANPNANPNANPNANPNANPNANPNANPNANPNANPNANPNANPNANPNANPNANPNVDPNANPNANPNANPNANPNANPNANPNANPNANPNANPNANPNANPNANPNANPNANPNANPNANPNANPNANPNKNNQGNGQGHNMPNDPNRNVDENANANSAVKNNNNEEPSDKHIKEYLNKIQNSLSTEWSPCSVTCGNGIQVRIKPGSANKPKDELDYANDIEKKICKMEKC

Substance: anti-PfCSP 2A10 monoclonal antibody
- circumsporozoite precipitation reaction (CSPR), mean FSC-W: 1220
